Results from the DeepSol protein solubility set.

Assay: soluble on expression in E. coli; label from the status in PepcDB or PDB records

Sequence | soluble on expression in E. coli
MAVSDSQNSQTCLDPDASRSVLGIILGGGAGTRLYPLTKKRAKPAVPLGANYRLIDIPVSNCLNSNISKIYVLTQFNSASLNRHLSRAYASNMGGYKNEGFVEVLAAQQSPENPDWFQGTADAVRQYLWLFEEHTVLEYLILAGDHLYRMDYEKFIQAHRETDADITVAALPMDEKRATAFGLMKIDEEGRIIEFAEKPQGEQLQAMKVDTTILGLDDKRAKEMPFIASMGIYVISKDVMLNLLRDKFPGANDFGSEVIPGATSLGMRVQAYLYDGYWEDIGTIEAFYNANLGITKKPVPDFSFYDRSAPIYTQPRYLPPSKMLDADVTDSVIGEGCVIKNCKIHHSVVGLRSCISEGAIIEDSLLMGADYYETDADRKLLAAKGSVPIGIGKNCHIKRAIIDKNARIGDNVKIINKDNVQEAARETDGYFIKSGIVTVIKDALIPSGIII | soluble
MSLGRPAPFKVGALNSITGAGGTYGPGMLEAIKIGIAEVNAAGGAAGRELKLYAEDDQTRPDAAVLAARKLVDIQHVDAMIGIWSSAVQLATLPITNAAGILSFNTCGAPEIRTEDKRDLVFQFYASNAIIGAAFAAIGQRLGYKRAAVLGYNNATMSVQANHFKAAWEKKGNQIVSSAIYEPNQATYRTEVEKAVAAKPDVIVLSSYTPDATILLKEWYQTGYECKFIMPGYSATPALIKALGPDVMRNIVSTANVPASDNQAYKAFVEKFQAVTKSPPEMFAAAAYDMVITLALAIEAAGPDAKPADLSALVRQVSNPPGQKVSSFVQGRDLLRQKAKIDFDGASSSLDFDANGDTVPDFGIYEFDGKAFALKDVVPGATEGHHHHHH | soluble
MLEQPIGVIDSGVGGLTVAKEIMRQLPKENIIYVGDTKRCPYGPRPEEEVLQYTWELTNYLLENHHIKMLVIACNTATAIALDDIQRSVGIPVVGVIQPGARAAIKVTDNQHIGVIGTENTIKSNAYEEALLALNPDLKVENLACPLLVPFVESGKFLDQTADEIVKTSLYPLKDTSIDSLILGCTHYPILKEAIQRYMGEHVNIISSGDETAREVSTILSYKGLLNQSPIAPDHQFLTTGARDQFAKIADDWFGHEVGHVECISLQEPIKR | soluble
MYTLLLVDDEERMLDLLELYLAPNGYRCVKRRSGAEAIDYLRRHHADLVLLDVMMPELDGWETCRRIRSFSNVPIMMVTARDETADIVQGLKIGADDYVTKPFDEAELLARIEAVLRRTAGGRSAIRAAGLVWDEEEHTVRYEDKPIALTPKEFAILGLLLKHPNQVFSRGQIIASLWGYLADTEERTVDSHMKNIREKLRKAGFPADEYLQTVWGVGYKWEGRKS | soluble
MGSDKIHHHHHHMFKKIVLHGWRQFRNVDIDFHPRLTVLTGANGAGKTTLLNLVSRHFGWDGSFISTPVPRRSNPSLMYSTDFWDIDDIQVDIIHSFEREQNRKKQAAAQGSQTTIGKIIYGDGTETLITVPNSEVGSRYDVSIPARQRIDGLHIPSHRAPSTYQQVQNIPTIPRRRQEVFNQYLSLVQSRYLGSYTQWSPQYYMKETLISLATFGYGNAVVDADPESARLFEGFQEILRKMLPPKLRFKRLQIRVPEVILETETGNFSIDALSGGAAAVIDLAWQVFMYEPSESEFVVTLDEPENHLHPELQQRVLADLLTAFPSVQFVVATHSPFIVGSVPHSHVYVLGYDDSRRVNSTLLDTVNKTGTANEILRDVLGLEFTIPVWVENRLENLIEKYSKKDFTEDNLMMLRQEMTSLGLGKHVPQTISMLAQKKDGQ | not soluble
MAGTVEGEKIDVGFAGKRCIHSRNCVLGDPHVFVPNAPGQWIHPDAASVEKIVAIAESCPSGAITYVRKDGGPQEQPPVVNTVRLRENGPLAVHAEIVLDGETFYRATLCRCGASENKPFCDGSHGKAGFTATGEPALKDAPALEARNGPLKVTPTTNGPLKLEGNVEIVTGTGHTIDRTQRTFLCRCGHSANKPFCDGSHKKIGFVA | not soluble
MKKVLLTAINSQFIHSNLAVRYLKAYAKELDLQIKIREFSINDRLERIFEEIMYEKPDIVGFSCYIWNGEYVDKLSNLIKRVDENIQIFYGGPEVSFDCREVLLNSSADFLIEGEGEESFKEFLKWKLENGFDRKDLKIKGVYSKCQNQILYGGQREALDMNLLEFPYNEEDDLSNKIIYYEASRGCPFNCKYCLSSTIRGVRFLNPDRVKRELKFLADKKVKIVKFVDRTFNANPKFAMEIWKYLMELDTETVFHFEITADIVTEDEIELLKNAPKGRFQFEVGVQSTNNEVLKNVNRYIEFKDIKEIVMKLEEGKNINQHLDLIVGLPGEDFNSFKNSFNDVYSIGPEKLQIGFLKLLKGSSMREEAEKWGMSYSPYHPYEILRTKDISFEEISILKRVDSVVDKYYNTGKFDHIVEFLISDFETPFDFYYKLSEYFYHKGYFNRSISASEYYKVFLDFNKEILKKENDVLEEIVKFEYLKFNKKSWLPPFLTRLNVKEEEQAIKEKLKEENKFDKKLHLEKFSIDIDRYITKKEIVYKEMYHIFN | not soluble
MPQGRGDGGVRMAAISLTKVRETAPALVDLYKTAGVSLTKHGMAGTRAAVYLVVDYSGSMKPYYKDGSVQALADRVLSLSAHLDDDGIVPVVFFSTDVDAVTEIALADHQGRIERIVAGLGHMGKTSYHLAMDAVIDHYLDSGARHPALVVFQTDGGPINRLAAERYLCKAAPLPLFWQFVGFGDPDSRQFEYLRKLDELAVPGKRVIDNAGFFHAGRDPRKVTDAELYDRLVGEFPQWLAAARAQGIARPSLEHHHHHH | not soluble
GPGSMSMQQDFVHPRQLDDMRAIHAAINSFSGVMTKMMMLMKELGTTLEQVSHSFDALTSLTFTKDEVKQYVHKFGEEIISMKEGIAFCEYNKLVHEDVLHPVEQLKKSLKEAEQAAKAEKSAFEKYKKAKQRVDKQEKAFAEKSKPLDTSKSYPTHVQARNNALVSLQNCKSEFEERFVMLMNDVESVTSTALRRYLELNAGYMTSVVDALTKTDPTVGEAAVFYRQEKQAHRQSAVEQCCLQVNSDLSTAHASQGYRFDPSRMNGCLHDTIIFKRLPSRLRHSTGSRTRSLRVNRPAVE | soluble
MKAVVFDFDGTMLDTENLWYTETMKYLKDTYNIDLPDEIYQQIIGTSEEPIISYMMEATNGAFDKEAFLTTVAEACHLGQQSLGFRNGFKEFFEQVKANGYKIGLATSSGFDWIEPTLDRLGILADFETIQTADHVEEIKPHPALYLQAVEALGVKPEEAIAIEDSKNGALSALQAGLKVYIVPNEATKNITFPKEATVVSSFAEIKLK | not soluble
GTLDTTWKEATLPQVKAMLEKDTGKVSGDTVTYSGKTVHVVAAAVLPGFPFPSFEVHDKKNPTLEIPAGATVDVTFINTNKGFGHSFDITKKGPPYAVMPVIDPIVAGTGFSPVPKDGKFGYTNFTWHPTAGTYYYVCQIPGHAATGQFGKIVVK | soluble
MAHHHHHHMKINLSFNKNKENKNRNKNGDTDIDNDTRNNKSYKENNPMTRNKIETIFSMSDDEETINYENTHNKIIQQKKENQLNDKIKEYIKEHEEPALTTHEKKEDKKERIDEKNNKKKIQYLGYKSNELTKLNNPKTDDSYDYPFEEKEIYDNLDEKERKKKTIEHNDKDGHEYYKKDHKNHKKYTRSHENDNEVNAYNKDCDVRNKTIDKKTYMKKYDKNIQDYEKKKKKSENSDDDVNRSYLCIDDIFKKKENIDGKKKSKYMEALINSAKRRELEKEFLIQKKQKIDTEKEEKVFVTSAYKKKLMDRELIKKDMDLEVEEKKVDKSSNYNLNLFLKNINAPSNYNRYNRR | soluble
MKEKEKIYRHLTEEEISVLEGNYCQCADWTMVEVADGFDANRCLHVMFSGQIRIGSTRGSHLLPGGLHVPTGINIARLHNCIVGDEVVIFHVNSYLANYRIGDYTRIENIDTIAVTESTSFGNGVEVTVLNETGGREVTITDNLTAQTAYLMAMYRHDKVLTESLAAMARAYAESRRSDMGAIGSHVVIHGCNTIENVCIGDYTEITGASHLCNGSINSKKEAPVSVGYNVVCRDFILCSGSSVTDGATVSHCFVGQGTHLGHLFSAHDSLFFANCQGENGEACAVFAGPYTVSMHK | not soluble
NNDSWKPWSLPLSGKIIYLDPGHGGPDGGAVGGKLLEKDVTLEVAFRVRDYLQEQGALVIMTRESDTDLAPEGTKGYSRRKAEDLRQRVKLINHSEAELYISIHLNAIPSQKWSGAQSFYYGKYAENEKVAKYIQDELRRNLENTTRKAKRIHGIYLMQNVTKPGALIEVGFLSNPSEATLLGKPKYQDKVASSIYKGILRYFTEKGDPPE | not soluble
MAKLGPAGYSPYPVAVTEGVLTPPPGKALMFNEIVDEEIAMREAAKAMLTRDNPTIFPGPQVLYAWNEEAKEKAKLVRKMAEVLGAKIIPMYDYRPKYPKIDPEKEINPNHPNLTIWHNKIKACIFIGVHCHYANVALKIIRAETDCFTIAMCSMAGHEDAMITLRDQHVEDLEKFIKIAEEVKKELGK | not soluble
MSLGTNKDYIEYVHKVYDYLHTIPEKGFEEYKTSEFVLKELEKMGFENINKGVAGTGIIVTIDSKKEGPVFAIRADMDALEFIIDGEKKMIHACGHDGHTSMLLTAAKLIKERNLVKRGKLKILFQPGEEKLYGALRVIDSGLLDDVEEMVGMHLRPGQDCRLGKAIPAMYHCASCIMEFTIKGITCHGSKPHLGVNAVDAVCLAVNAINAIRVNPAIPNSIKVTNISVKGETYNNIPDEAFMALDIRAESNDIIEELKEKAIHAAKTAVSSINAEAVLISKDGVPAAEFDEELVNLAEETIKDVLGADASIGIFKNSGGEDFHYYTQKLKCKTTYIGLGADATPGFHNPNVTFDTKALEYGVDIWCRLVEKRLGEGHHHHHH | soluble
GSHMTMSRRNTDAITIHSILDWIEDNLESPLSLEKVSERSGYSKWHLQRMFKKETGHSLGQYIRSRKMTEIAQKLKESNEPILYLAERYGFESQQTLTRTFKNYFDVPPHKYRMTNMQGESRFLHPLNHYNS | soluble
SASWLPETLFEIVGQGPAPSKDYYQLLITRTQIIFRWWKISLRSEYRSAKPGETKESHEDFLDNSHLQVQVAVVFGTKILDYVFNLCEGKFDYLERLSDRLLLKIICYLDLEDIASLSQTSSKFEKLCKSDLLWEQIVQSTCDTITPDMRALAKNMGWRQMFLTNNIQLQRQTRKKKQRQENQAEKLA | soluble
MEDVWLQAQSNLAKVLTHQTFTTWIEPIRFAGAHKNTLLLEAPNQFIRDRVRESYLPMILESVRSLTDSHFQVELQVAARQQEKTAKSPRKSHTEDELGPVESEKCAPAEFSTNLNAKYTFDTFVCGGSNQFAHAAALSVANNPAGKYNPLFIYGGVGLGKTHLLTAIGNQVLTKNRKARVCFYTSEKFMNELINCLRYQKMEQFRNKFRKMDLLLIDDIQFIAGKERTQEEFFHTFNALYESHKQIVVTSDKFPKDIPGLEERLRSRFEWGLIADIQPPDTETKVAILSKKADSDGIRLPDDVALFLASSASTNVRELEGMLIRLGAVASLTGKNITLDMAREVLKDIIVDKTKEVTVEMIQKYVADHFNIKVAELKSDKRLKALVVPRQIAIYLCRDLTKASYPDIGEKFGGKDHSTIIHSVKKVDKLLSQDFELKSTIETLRKGLLNLEHHHHHH | soluble
MHWQTHTVFNQPIPLNNSNLYLSDGALCEAVTREGAGWDSDFLASIGQQLGTAESLELGRLANVNPPELLRYDAQGRRLDDVRFHPAWHLLMQALCTNRVHNLAWEEDARSGAFVARAARFMLHAQVEAGSLCPITMTFAATPLLLQMLPAPFQDWTTPLLSDRYDSHLLPGGQKRGLLIGMGMTEKQGGSDVMSNTTRAERLEDGSYRLVGHKWFFSVPQSDAHLVLAQTAGGLSCFFVPRFLPDGQRNAIRLERLKDKLGNRSNASCEVEFQDAIGWLLGLEGEGIRLILKMGGMTRFDCALGSHAMMRRAFSLAIYHAHQRHVFGNPLIQQPLMRHVLSRMALQLEGQTALLFRLARAWDRRADAKEALWARLFTPAAKFVICKRGMPFVAEAMEVLGGIGYCEESELPRLYREMPVNSIWEGSGNIMCLDVLRVLNKQAGVYDLLSEAFVEVKGQDRYFDRAVRRLQQQLRKPAEELGREITHQLFLLGCGAQMLKYASPPMAQAWCQVMLDTRGGVRLSEQIQNDLLLRATGGVCV | soluble
